Experimental data published in patent publication US20210024620A1.
One block for each substance: values may come before it.

Key:
[1] = molecular target: Human CD16a (FcγRIIIa residues 17-208 with C-terminal HPC4 tag and valine at position 158) (human) (UniProt P08637); assay: Biacore SPR, HPC4-tagged FcγRIIIa-V158 captured by anti-HPC4, pH 7.4
[2] = molecular target: FcRn immobilised on the FcRn affinity column (biotinylated cynoFcRn in one experiment, biotinylated hFcRn in another); assay: FcRn affinity chromatography, linear pH gradient; species of the immobilised FcRn not given
[3] = molecular target: Human CD16a (FcγRIIIa V158) with C-terminal HPC4 tag (human) (UniProt P08637); assay: Biacore, FcγRIIIa V158 captured, steady-state fit, apparent KD
rat FcRn (rat) [4] = molecular target: rat FcRn (rat) (UniProt P13599); assay: Biacore SPR, pH 6.0
rat FcRn (rat) [5] = molecular target: rat FcRn (rat) (UniProt P13599); assay: Biacore, pH 6.0, apparent KD
[6] = molecular target: biotinylated human FcRn (p51 subunit residues 24-297 with C-terminal Avi-tag; beta2-microglobulin residues 21-119) (human) (UniProt P55899); assay: Biacore SPR, pH 7.4, steady state
rat FcRn (rat) [7] = molecular target: rat FcRn (rat) (UniProt P13599); assay: Biacore SPR, pH 7.4
[8] = molecular target: biotinylated human FcRn (human) (UniProt P55899); assay: Biacore SPR, pH 7.4
rat FcRn (rat) [9] = molecular target: rat FcRn (rat) (UniProt P13599); assay: Biacore SPR, pH 6.0; remark: listed apart in the source
rat FcRn (rat) [10] = molecular target: rat FcRn (rat) (UniProt P13599); assay: Biacore, pH 7.4, steady state response
[11] = molecular target: biotinylated human FcRn (human) (UniProt P55899); assay: Biacore, pH 7.4, steady state response
[12] = molecular target: biotinylated human FcRn (human) (UniProt P55899); assay: Biacore SPR, pH 6.0
[13] = molecular target: biotinylated human FcRn (human) (UniProt P55899); assay: Biacore, pH 6.0, apparent KD
[14] = molecular target: Human CD16a (FcγRIIIa V158) with C-terminal HPC4 tag (human) (UniProt P08637); assay: Biacore SPR, FcγRIIIa-V158 captured, pH 7.4
rat FcRn (rat) [15] = molecular target: rat FcRn (rat) (UniProt P13599); assay: Biacore, pH 6.0
[16] = molecular target: biotinylated human FcRn (human) (UniProt P55899); assay: Biacore, pH 6.0
[17] = molecular target: biotinylated human FcRn (p51 subunit residues 24-297 with C-terminal Avi-tag; beta2-microglobulin residues 21-119) (human) (UniProt P55899); assay: Biacore SPR, pH 6.0
[18] = molecular target: biotinylated human FcRn (human) (UniProt P55899); assay: Biacore SPR, pH 6.0; remark: listed apart in the source
[19] = molecular target: biotinylated human FcRn (p51 subunit residues 24-297 with C-terminal Avi-tag; beta2-microglobulin residues 21-119) (human) (UniProt P55899); assay: Biacore; affinity at pH 6.0 (M^-1) over steady state RU at pH 7.4
[20] = molecular target: biotinylated human FcRn (human) (UniProt P55899); assay: Biacore, biotin-captured hFcRn, pH 6.0
[21] = molecular target: biotinylated human FcRn (p51 subunit residues 24-297 with C-terminal Avi-tag; beta2-microglobulin residues 21-119) (human) (UniProt P55899); assay: Biacore; inverse ratio (RU at pH 7.4 over affinity at pH 6.0)
[22] = molecular target: biotinylated human FcRn (human) (UniProt P55899); assay: Biacore SPR, pH 7.4; remark: listed apart in the source
[23] = molecular target: biotinylated human FcRn (human) (UniProt P55899); assay: Biacore SPR, pH 7.4, 1000 nM antibody
[24] = molecular target: biotinylated cynomolgus FcRn (cynomolgus) (UniProt Q8SPV9); assay: Biacore, biotin-captured cFcRn, pH 8.0
[25] = molecular target: biotinylated cynomolgus FcRn (cynomolgus) (UniProt Q8SPV9); assay: Biacore, biotin-captured cFcRn, pH 9.0, 1000 nM antibody
[26] = molecular target: biotinylated cynomolgus FcRn (cynomolgus) (UniProt Q8SPV9); assay: Biacore, biotin-captured cFcRn, pH 7.4
[27] = molecular target: biotinylated cynomolgus FcRn (cynomolgus) (UniProt Q8SPV9); assay: Biacore, biotin-captured cFcRn, pH 8.0, 1000 nM antibody
[28] = molecular target: biotinylated cynomolgus FcRn (cynomolgus) (UniProt Q8SPV9); assay: Biacore, biotin-captured cFcRn, pH 7.4, 1000 nM antibody
[29] = molecular target: biotinylated human FcRn (human) (UniProt P55899); assay: Biacore, biotin-captured hFcRn, pH 7.4, 1000 nM antibody
[30] = molecular target: biotinylated human FcRn (human) (UniProt P55899); assay: Biacore, biotin-captured hFcRn, pH 9.0, 1000 nM antibody
[31] = molecular target: biotinylated human FcRn (human) (UniProt P55899); assay: Biacore, biotin-captured hFcRn, pH 8.0
[32] = molecular target: biotinylated human FcRn (human) (UniProt P55899); assay: Biacore, biotin-captured hFcRn, pH 8.0, 1000 nM antibody
[33] = molecular target: biotinylated cynomolgus FcRn (cynomolgus) (UniProt Q8SPV9); assay: Biacore, biotin-captured cFcRn, pH 6.0
[34] = molecular target: Human CD16a (FcγRIIIa V158) with C-terminal HPC4 tag (human) (UniProt P08637); assay: Biacore, FcγRIIIa V158 captured, relative to WT of the same backbone
mouse FcRn (mouse) = mouse FcRn (mouse) (UniProt Q61559); assay: Biacore, pH 7.4, steady state response
[35] = molecular target: biotinylated cynomolgus FcRn (cynomolgus) (UniProt Q8SPV9); assay: Biacore, pH 7.4, steady state response
[36] = molecular target: biotinylated human FcRn (human) (UniProt P55899); assay: Biacore, biotin-captured hFcRn, pH 7.4

Chain of rat FcRn (rat) (P13599 23-298 limits assumed, chain 1 of 2): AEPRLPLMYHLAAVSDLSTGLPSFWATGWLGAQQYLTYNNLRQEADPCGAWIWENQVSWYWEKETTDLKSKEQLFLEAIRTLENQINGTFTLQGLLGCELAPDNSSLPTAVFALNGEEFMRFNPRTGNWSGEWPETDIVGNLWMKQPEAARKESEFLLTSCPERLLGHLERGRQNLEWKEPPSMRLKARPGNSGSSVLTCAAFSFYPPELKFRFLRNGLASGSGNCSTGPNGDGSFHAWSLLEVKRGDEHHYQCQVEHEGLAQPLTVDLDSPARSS
Chain of rat FcRn (rat) (P07151 21-119 limits assumed, chain 2 of 2, further chain): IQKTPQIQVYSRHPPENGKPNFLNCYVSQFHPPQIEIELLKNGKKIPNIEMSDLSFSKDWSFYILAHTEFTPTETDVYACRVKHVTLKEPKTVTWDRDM
Chain of Human CD16a (FcγRIIIa V158) with C-terminal HPC4 tag (human) (P08637 17-208 F176V): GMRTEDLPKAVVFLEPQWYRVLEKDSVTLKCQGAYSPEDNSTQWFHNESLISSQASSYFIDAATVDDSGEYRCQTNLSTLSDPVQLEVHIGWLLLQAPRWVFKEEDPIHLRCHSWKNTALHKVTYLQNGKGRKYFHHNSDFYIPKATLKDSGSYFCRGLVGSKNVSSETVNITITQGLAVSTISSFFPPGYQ
Chain of Human CD16a (FcγRIIIa residues 17-208 with C-terminal HPC4 tag and valine at position 158) (human) (P08637 17-208 F176V): as above

Substance: YTEKF benchmark (M252Y/S254T/T256E/H433K/N434F) hIgG1 (antibody)
FcγRIIIa Binding Steady State RU [1]: 207 RU

Substance: mAb1 AAA (T307A/E380A/N434A) (antibody; other documents disagree on this pair)
Ratio (pH 6.0/pH 7.4) [21]: 2.47e-05 | Steady State RU [22]: 13.1 RU | Kd [13]: 1.78 µM | Steady State RU [23]: 13.9 RU | koff [16]: 0.14 s⁻¹ | kon [16]: 84000 M⁻¹ s⁻¹ | Steady State Binding, pH 7.4 (RU) [6]: 13.9 RU | Ka [17]: 562000 M⁻¹ | Kd [18]: 1.78 µM | koff [18]: 0.144 s⁻¹ | kon [18]: 83700 M⁻¹ s⁻¹ | Ratio (pH 6.0/pH 7.4) [19]: 40400 | Steady State RU [11]: 13.9 RU

Substance: mAb1 YDWY (M252Y/T256D/T307W/N434Y) (antibody)
Kd [24]: 1.5 µM | Steady State RU [25]: 16 RU | Kd [26]: 0.049 µM | FcγRIIIa Binding Steady State RU [1]: 136 RU | Steady State Binding, pH 7.4 (RU) [6]: 88.5 RU | Steady State RU [27]: 354 RU | Kd [20]: 0.0052 µM | Steady State RU [28]: 178 RU | Ka [17]: 2.66e+08 M⁻¹ | Steady State RU [29]: 166 RU | Steady State RU [30]: 10.4 RU | Kd [31]: 0.7 µM | Steady State RU [32]: 281 RU | Kd [33]: 0.0032 µM

Substance: mAb2 LS (M428L/N434S) (antibody)
FcγRIIIa V158 Affinity Fold Change (fold relative to WT) [34]: 1.23 | Steady State RU (mouse FcRn (mouse)): 285 RU | Steady State RU [35]: 38 RU | Steady State RU [11]: 44 RU

Substance: mAb1 YDWF (M252Y/T256D/T307W/N434F) (antibody)
Kd [24]: 0.68 µM | Steady State RU [25]: 4.6 RU | Kd [26]: 0.115 µM | FcγRIIIa Binding Steady State RU [1]: 128 RU | Steady State Binding, pH 7.4 (RU) [6]: 71.8 RU | Steady State RU [27]: 313 RU | Kd [36]: 0.194 µM | Steady State RU [28]: 173 RU | Ka [17]: 1.66e+08 M⁻¹ | Steady State RU [29]: 124 RU | Kd [31]: 1.3 µM | Steady State RU [32]: 235 RU | Kd [33]: 0.0086 µM

Further lines, results first:

FcRn affinity column elution pH [2]: 8.29 pH | Kd [3]: 1.06 µM | Kd (rat FcRn (rat) [4]): 0.0059 µM | Kd (rat FcRn (rat) [5]): 0.0059 µM | Steady State Binding, pH 7.4 (RU) [6]: 9.7 RU | Steady State RU (rat FcRn (rat) [7]): 56 RU | Steady State RU [8]: 9.7 RU | Kd (rat FcRn (rat) [9]): 0.00586 µM | Steady State RU (rat FcRn (rat) [10]): 56 RU | Steady State RU [11]: 9.7 RU
Substance: mAb1 YDTN (M252Y/T256D) (antibody)

FcRn affinity column elution pH [2]: 7.92 pH | Kd [3]: 0.6 µM | Kd (rat FcRn (rat) [4]): 0.0095 µM | koff [12]: 0.087 s⁻¹ | kon [12]: 380000 M⁻¹ s⁻¹ | Kd (rat FcRn (rat) [5]): 0.0095 µM | Kd [13]: 0.232 µM | FcγRIIIa V158 affinity fold change relative to WT [14]: 0.73 fold | koff (rat FcRn (rat) [15]): 0.0013 s⁻¹ | kon (rat FcRn (rat) [15]): 13000 M⁻¹ s⁻¹ | koff [16]: 0.087 s⁻¹ | kon [16]: 380000 M⁻¹ s⁻¹ | Steady State Binding, pH 7.4 (RU) [6]: 10.7 RU | Steady State RU (rat FcRn (rat) [7]): 39.1 RU | Steady State RU [8]: 10.7 RU | Ka [17]: 4.31e+06 M⁻¹ | Kd (rat FcRn (rat) [9]): 0.00954 µM | koff (rat FcRn (rat) [9]): 0.00127 s⁻¹ | kon (rat FcRn (rat) [9]): 133000 M⁻¹ s⁻¹ | Kd [18]: 0.232 µM | koff [18]: 0.0872 s⁻¹ | kon [18]: 376000 M⁻¹ s⁻¹ | Ratio (pH 6.0/pH 7.4) [19]: 403000 | Steady State RU (rat FcRn (rat) [10]): 39.1 RU | Steady State RU [11]: 10.7 RU
Substance: mAb1 MDQN (T256D/T307Q) (antibody)

FcγRIIIa Binding Steady State RU [1]: 163 RU | Kd [20]: 0.013 µM | koff [20]: 0.0103 s⁻¹ | kon [20]: 810000 M⁻¹ s⁻¹
Substance: mAb1 YEWF (M252Y/T256E/T307W/N434F) (antibody)
